From PMC6524969, “A nanobody-based molecular toolkit provides new mechanistic insight into clathrin-coat initiation” (eLife, 2019)

Legend:
[1] = target: T1, GST-EPS15R (1-365) (Homo sapiens, UniProt Q9UBC2); test: pull-down; GST fusion (50 μg, or increasing amounts) immobilised on glutathione-Sepharose; Nb in clarified E. coli periplasmic extract adjusted to 125 mM sodium chloride; 4°C, 60 min; supernatant and pellet on Coomassie-stained gels; conditions: one partner purified
T1 construct: Epidermal growth factor receptor substrate 15R (EPS15R, gene EPS15L1), H. sapiens, residues 1-365 (stop T366*), in pGEX-5X-1; also called EPS15R EH1R-3R; source: E. coli BL21 codon plus RIL, purified (glutathione-Sepharose)
T1 sequence (Q9UBC2 1-365): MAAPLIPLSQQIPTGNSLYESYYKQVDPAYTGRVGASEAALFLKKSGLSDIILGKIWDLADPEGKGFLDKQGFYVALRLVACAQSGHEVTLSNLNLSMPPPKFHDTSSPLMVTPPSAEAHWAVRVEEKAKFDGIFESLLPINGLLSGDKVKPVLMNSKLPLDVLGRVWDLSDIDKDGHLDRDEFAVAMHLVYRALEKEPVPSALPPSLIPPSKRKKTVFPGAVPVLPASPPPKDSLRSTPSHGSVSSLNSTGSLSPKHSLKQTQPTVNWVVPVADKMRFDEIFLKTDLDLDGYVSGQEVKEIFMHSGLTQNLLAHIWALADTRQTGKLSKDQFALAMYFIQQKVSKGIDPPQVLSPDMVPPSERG

[2] = target: T2, GST-EPS15 (1-109) (Homo sapiens, UniProt P42566); test: pull-down; quantitative titration; Nb E_142 fixed at 2 μM, immobilised GST-EPS15 (1-109) 0.5-20 μM or (1-314) 0.25-10 μM; PBS with 100 μg/ml BSA, 4°C, 60 min, 400 μl; Nb band in the supernatant quantified; apparent KD (half-maximal binding); conditions: both partners purified
T2 construct: stop codon L110* in pGEX-5X-1; Printed molecular weight 38,271.3; also called EH1; source: E. coli BL21 codon plus RIL, purified (glutathione-Sepharose); not shown: GST, N-terminal, kept
T2 sequence (P42566 1-109): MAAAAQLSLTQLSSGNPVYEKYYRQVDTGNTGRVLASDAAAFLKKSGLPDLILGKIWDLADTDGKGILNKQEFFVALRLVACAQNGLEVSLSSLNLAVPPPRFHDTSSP

[3] = target: T3, GST-EPS15 (1-314) (human, UniProt P42566); test: as above; conditions: both partners purified
T3 construct: stop codon at 315 (S315*) in pGEX-5X-1; Printed molecular weight 60,924.7; also called GST-EPS15 EH1-3; source: E. coli BL21 codon plus RIL, purified (glutathione-Sepharose); not shown: GST, N-terminal, kept
T3 sequence (P42566 1-314): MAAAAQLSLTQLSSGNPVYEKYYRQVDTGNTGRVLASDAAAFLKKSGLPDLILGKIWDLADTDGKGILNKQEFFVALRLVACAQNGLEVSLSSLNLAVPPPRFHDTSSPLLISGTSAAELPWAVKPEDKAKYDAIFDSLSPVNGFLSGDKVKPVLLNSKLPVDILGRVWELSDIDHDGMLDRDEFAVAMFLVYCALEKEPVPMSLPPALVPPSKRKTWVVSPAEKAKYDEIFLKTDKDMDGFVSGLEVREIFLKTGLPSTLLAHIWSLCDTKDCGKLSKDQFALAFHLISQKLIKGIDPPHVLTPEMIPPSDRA

[4] = target: T4, native Eps15 in rat brain cytosol (Rattus norvegicus (brain cytosol, …, UniProt A0A8I5YC99)); test: pull-down; called immunoprecipitation; purified His6-tagged Nb E_142 bound to Ni-NTA-agarose; K-562 cell lysate or rat brain cytosol; immunoblots; conditions: one partner purified
T4 construct: Eps15, endogenous in rat brain cytosol; source: endogenous, rat brain cytosol

[5] = target: T5, EPS15R in K-562 cell lysate (human (endogenous in K-562), UniProt Q9UBC2); test: as above; conditions: one partner purified
T5 construct: Epidermal growth factor receptor substrate 15R, endogenous in K-562 cells
T5 sequence (Q9UBC2 whole entry): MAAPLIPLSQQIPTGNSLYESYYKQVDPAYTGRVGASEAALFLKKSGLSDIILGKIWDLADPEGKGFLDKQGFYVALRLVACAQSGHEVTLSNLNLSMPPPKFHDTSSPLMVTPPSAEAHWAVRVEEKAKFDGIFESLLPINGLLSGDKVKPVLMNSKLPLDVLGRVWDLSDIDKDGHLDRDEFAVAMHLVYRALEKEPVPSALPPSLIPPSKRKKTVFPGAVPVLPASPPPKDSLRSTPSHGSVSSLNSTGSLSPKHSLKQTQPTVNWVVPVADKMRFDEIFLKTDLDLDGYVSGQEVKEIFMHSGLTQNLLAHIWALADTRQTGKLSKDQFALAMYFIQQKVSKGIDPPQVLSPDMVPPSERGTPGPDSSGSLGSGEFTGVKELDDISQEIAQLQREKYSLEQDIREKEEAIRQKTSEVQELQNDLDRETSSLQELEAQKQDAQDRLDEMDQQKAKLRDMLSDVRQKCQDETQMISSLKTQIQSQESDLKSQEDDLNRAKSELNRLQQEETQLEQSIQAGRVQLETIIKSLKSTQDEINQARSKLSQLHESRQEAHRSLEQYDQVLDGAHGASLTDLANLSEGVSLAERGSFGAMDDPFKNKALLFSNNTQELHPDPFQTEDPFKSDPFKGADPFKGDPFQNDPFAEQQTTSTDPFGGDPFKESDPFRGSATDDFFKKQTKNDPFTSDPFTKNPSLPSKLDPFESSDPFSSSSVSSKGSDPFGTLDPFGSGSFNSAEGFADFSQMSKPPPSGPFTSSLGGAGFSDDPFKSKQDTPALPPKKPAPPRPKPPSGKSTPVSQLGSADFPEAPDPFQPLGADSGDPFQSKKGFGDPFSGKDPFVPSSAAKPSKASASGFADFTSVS

[6] = target: T6, endogenous EPS15 in HeLa cells (Homo sapiens, UniProt P42566); test: immunostaining of cells or tissue; relocalisation in cells: Nb E_142 fusion tethered to endosomes (GFP-FYVE2) or mitochondria (Akap1) in transfected HeLa cells; endogenous EPS15 stained with antibodies, confocal microscopy; controls without the Nb module; conditions: partners not purified
T6 construct: Epidermal growth factor receptor substrate 15, endogenous in HeLa cells, stained with anti-EPS15 antibodies; source: endogenous, HeLa SS6 and HeLa clone #40 cells
T6 sequence (P42566 whole entry, the tested form may be a part): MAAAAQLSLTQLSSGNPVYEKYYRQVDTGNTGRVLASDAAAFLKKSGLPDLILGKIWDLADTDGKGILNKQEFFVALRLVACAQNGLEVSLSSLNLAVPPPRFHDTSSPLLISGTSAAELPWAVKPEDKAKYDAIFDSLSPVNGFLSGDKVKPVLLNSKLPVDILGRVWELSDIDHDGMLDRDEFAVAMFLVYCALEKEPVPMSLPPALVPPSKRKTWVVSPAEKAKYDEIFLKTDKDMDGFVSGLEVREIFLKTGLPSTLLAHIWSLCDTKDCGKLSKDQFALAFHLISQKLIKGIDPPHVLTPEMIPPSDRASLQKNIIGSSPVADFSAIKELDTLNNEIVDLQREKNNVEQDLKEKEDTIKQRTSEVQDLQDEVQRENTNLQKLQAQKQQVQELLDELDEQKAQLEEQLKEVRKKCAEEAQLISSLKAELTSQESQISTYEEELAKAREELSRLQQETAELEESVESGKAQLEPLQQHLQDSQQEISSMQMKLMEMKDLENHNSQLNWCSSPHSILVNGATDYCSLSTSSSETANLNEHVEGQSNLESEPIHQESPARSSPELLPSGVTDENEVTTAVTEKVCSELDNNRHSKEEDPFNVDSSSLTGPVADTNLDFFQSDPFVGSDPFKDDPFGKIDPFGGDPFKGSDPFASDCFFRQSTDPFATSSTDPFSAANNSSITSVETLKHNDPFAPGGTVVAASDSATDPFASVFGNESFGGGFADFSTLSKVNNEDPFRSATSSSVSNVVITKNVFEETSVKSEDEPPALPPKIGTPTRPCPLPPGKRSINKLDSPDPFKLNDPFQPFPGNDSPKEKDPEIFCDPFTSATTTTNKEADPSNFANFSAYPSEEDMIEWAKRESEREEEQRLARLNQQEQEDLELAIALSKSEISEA

[7] = target: T3, GST-EPS15 (1-314); test: pull-down; GST fusion (50 μg, or increasing amounts) immobilised on glutathione-Sepharose; Nb in clarified E. coli periplasmic extract adjusted to 125 mM sodium chloride; 4°C, 60 min; supernatant and pellet on Coomassie-stained gels; conditions: one partner purified

B1: Nb E_142 (VHH)
VHH: QVQLQESGGGLVQAGGSLRLSCAASGFISSSSTMGWYRPAPGKQRELVASISSGGTTNYAESVKGRFTISRDNAKNTVYLQMDSLKPEDTAVYYCNMKSMNPFRRYDVWGQGTQVTVSS
notes: NPF(R) tripeptide in CDR3; Printed molecular weight of Nb E_142-His6: 13,683.2; also called Nb E_142-His6; His6-tagged Nb E_142; source: E. coli XL1-Blue (pHEN6c), periplasmic extract; also purified from the periplasmic extract (Ni-NTA-agarose, Sephacryl S-100); not shown: His6, C-terminal, kept
binding result [1]: binds
Kd [2]: ~3 µM
Kd [3]: ~2 µM
binding result [4]: binds
binding result [5]: binds

B2: GFP-FYVE2-desNb E_142 (VHH)
VHH: QVQLQESGGGLVQAGGSLRLSCAASGFISSSSTMGWYRPAPGKQRELVASISSGGTTNYAESVKGRFTIRRDNAKNTVYLQMDSLKPEDTAVYYYNMKSMNPFRRYDVWGQGTQVTVSF
notes: Four glycine residues between the second FYVE domain and the Nb; also called GFP-FYVE2-dNb E_142; 3maj conditionally destabilized Nb E_142; source: HeLa SS6, transiently transfected, in cells; not shown: GFP, N-terminal, kept; tandem FYVE domain (FYVE2), N-terminal, kept
binding result [6]: binds

B3: Nb E_180 (VHH)
VHH: QVQLQESGGGSVQAGGSLRLSCAASGSIFSVNLMGWYREAPGKATEFVATVTAGGYTNVADSLKDRFTISMDNAKNTVYLQMNNLKPEDTAVYYCNMKSMNPFRRYDVWGQGTQVTVSS
notes: CDR3 identical to that of Nb E_142, 18 amino acid differences from Nb E_142; also called Nb E_180-His6; source: E. coli XL1-Blue (pHEN6c), periplasmic extract
binding result [7]: binds

B4: Nb E_3 (VHH)
VHH: QVQLQESGGGLVQAGGSLRLSCAASGSIFSINAMGWYRQAPGKQRELVAAITSGGTTNYADSVKGRFTISRDNAKNTLYLQMNSLKPEDTAVYYCNLGGLRNPFGSWGQGTQVTVSS
notes: NPF tripeptide in CDR3, placed differently from that of Nb E_142; also called Nb E_3-His6; source: E. coli XL1-Blue (pHEN6c), periplasmic extract
binding result [7]: binds
